A short description of this data set: protein stability index of a GFP-peptide fusion (GPS, HEK-293T) (PSI 1-6); higher = more stable. The settings on record: c terminus: a fixed tail appended.

± gives the standard deviation.
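Note: 24-mer peptide tiles fused after GFP, lentivirally expressed, FACS-sorted into six equal bins by GFP/DsRed ratio, decoded by Illumina sequencing, PSI is the read-weighted mean bin number.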

On to AAAGEQASGAEAEPGPAGPPPPPS [BTBD1], for which the protein stability index runs as follows: (treatment: DMSO) 5.446 ± 0.021; (treatment: MLN4924 1 uM, 8 h) 5.52 ± 0.19.

Regarding AAAYTFLQRNPKHELTAKYLNYYQ [P3H4], the protein stability index turned out to be 2.25 ± 0.23 (treatment: DMSO) and 2 ± 0.33 (treatment: MLN4924 1 uM, 8 h).

As to AAGGDGELGSPLRRSISSSRSENV [PSD2], the protein stability index reads like this: (treatment: DMSO) 5.07 ± 0.11; (treatment: MLN4924 1 uM, 8 h) 5.1 ± 0.19.

Regarding AAGTHDGSVYFWATPRQVPSLQHL [WSB1], the protein stability index was 2.52 ± 0.22 (treatment: DMSO) and 2.64 ± 0.21 (treatment: MLN4924 1 uM, 8 h).

AAIDNGLAFPLKHPDSWRAYPFYW [PI4K2A]: the protein stability index by setting is: (treatment: DMSO) 2.27 ± 0.18; (treatment: MLN4924 1 uM, 8 h) 2.26 ± 0.2.

For the sequence AAIFKIYLSCLEELMKCQIIYPRQ [TRIP13], the protein stability index (treatment: DMSO) came to 3.08 ± 0.43 and the protein stability index (treatment: MLN4924 1 uM, 8 h) turned out to be 3.21 ± 0.17.

With AAKPAASITSKPATLTTTSATSKL [ZNF207], the protein stability index is, setting by setting: (treatment: DMSO) 4.6 ± 0.12; (treatment: MLN4924 1 uM, 8 h) 4.6 ± 0.17.

For AAPFPSPAPASPAISVVGVSAGGH [TFE3], the protein stability index (treatment: DMSO) was found to be 4.24 ± 0.35 and the protein stability index (treatment: MLN4924 1 uM, 8 h) turned out to be 4.16 ± 0.38.

On to AARAAGRDVAAEAVARSPKRPAWG [POMT2], for which the protein stability index runs as follows: (treatment: DMSO) 4.1 ± 0.29; (treatment: MLN4924 1 uM, 8 h) 4.29 ± 0.51.

Regarding ACRFTKCLRVGMLKEGVRLDRVRG [ESRRA], the protein stability index reads like this: (treatment: DMSO) 2.31 ± 0.17; (treatment: MLN4924 1 uM, 8 h) 2.25 ± 0.19.

For the sequence ACTMDQARGLDDAAARGGQCPGLG [ZBED3], the protein stability index came out at 4.54 ± 0.18 (treatment: DMSO) and 4.51 ± 0.14 (treatment: MLN4924 1 uM, 8 h).

On to ADKCVCGPSAPPAPTPPSLSQRVM [TIAF1], for which the protein stability index was determined as 4.15 ± 0.24 (treatment: DMSO) and 4.42 ± 0.35 (treatment: MLN4924 1 uM, 8 h).

As for ADLSQKSPELQEEFGYNAETQKLL [ARFIP2], the protein stability index runs as follows: (treatment: DMSO) 4.95 ± 0.37; (treatment: MLN4924 1 uM, 8 h) 5.14 ± 0.17.

ADTGRIHRFVEKPQVFVSNKINAG [GMPPB]: the protein stability index is 3.46 ± 0.32 (treatment: DMSO) and 3.84 ± 0.18 (treatment: MLN4924 1 uM, 8 h).

Regarding ADTNSDRLFTVNDVKVGGSKYGII [DCAF4], the protein stability index (treatment: DMSO) stood at 3.01 ± 0.21 and the protein stability index (treatment: MLN4924 1 uM, 8 h) worked out at 3.02 ± 0.28.

Regarding AGEREDLWAGSKGKEFGYFPRDAV [MIA2], the protein stability index is, setting by setting: (treatment: DMSO) 3.47 ± 0.15; (treatment: MLN4924 1 uM, 8 h) 3.86 ± 0.51.

As for AGGIRESKESSKEKKLTVRQDLED [C22orf31], the protein stability index reads like this: (treatment: DMSO) 5.56 ± 0.12; (treatment: MLN4924 1 uM, 8 h) 5.48 ± 0.3.

AGKWRSYKGELFDKTPVLLTDYPV [MYORG]: the protein stability index is, setting by setting: (treatment: DMSO) 2.32 ± 0.21; (treatment: MLN4924 1 uM, 8 h) 2.43 ± 0.25.

AGLVHVKQCIVAHPVNPPYYIPLV [CRYL1]: the protein stability index reads like this: (treatment: DMSO) 2.46 ± 0.33; (treatment: MLN4924 1 uM, 8 h) 2.36 ± 0.54.

Regarding AGPGAPEPLAEGAAAEFSSLLRRI [SLC35F2], the protein stability index (treatment: DMSO) is 3.9 ± 0.32 and the protein stability index (treatment: MLN4924 1 uM, 8 h) stood at 3.77 ± 0.46.

As to AHSNEILIFSVQPKSLVRLSLEAV [KLHDC2], the protein stability index runs as follows: (treatment: DMSO) 3.01 ± 0.48; (treatment: MLN4924 1 uM, 8 h) 2.6 ± 0.12.

Sequence AIAMYFLPPSPRFLVMKGQEGAAS [SLC2A12] displayed a protein stability index (treatment: DMSO) of 2.17 ± 0.53 and a protein stability index (treatment: MLN4924 1 uM, 8 h) of 1.97 ± 0.31.

On to AIELQGHNDRVQALSYAQHTRQLI [WDFY2], for which the protein stability index reads like this: (treatment: DMSO) 3.1 ± 0.36; (treatment: MLN4924 1 uM, 8 h) 3.15 ± 0.41.

As to AIGRVRVLEEQLVKAKEQIENYKK [FUT8], the protein stability index stood at 4.03 ± 0.16 (treatment: DMSO) and 4.28 ± 0.27 (treatment: MLN4924 1 uM, 8 h).

For the sequence AILMKAYQRFRQKSKASFLLLASG [PTGFR], the protein stability index runs as follows: (treatment: DMSO) 3.41 ± 0.86; (treatment: MLN4924 1 uM, 8 h) 2.83 ± 0.41.

Take AKAPPTACYAGAAPAPSQVKSKAK [CEBPB]: the protein stability index (treatment: DMSO) was 5.36 ± 0.19 and the protein stability index (treatment: MLN4924 1 uM, 8 h) came to 5.21 ± 0.2.

Take AKQTKRMLDMKVNPIQGLASKWDY [COX4I1]: the protein stability index reads like this: (treatment: DMSO) 2.93 ± 0.35; (treatment: MLN4924 1 uM, 8 h) 2.72 ± 0.34.

In turn, ALEFWRQEELTRINQSFTGAERKA [IQUB] had a protein stability index (treatment: DMSO) of 3.87 ± 0.52 and a protein stability index (treatment: MLN4924 1 uM, 8 h) of 3.73 ± 0.43.

As to ALEQREQDAVDQVKVIMDALDERA [TRIM29], the protein stability index by setting is: (treatment: DMSO) 5.33 ± 0.097; (treatment: MLN4924 1 uM, 8 h) 5.31 ± 0.29.

For the sequence ALGIYGAPYAAAAAAQSYPGYLPY [IRX6], the protein stability index runs as follows: (treatment: DMSO) 2.23 ± 0.14; (treatment: MLN4924 1 uM, 8 h) 2.19 ± 0.27.

On to ALGKLLPRETLCTELVLSDCMLSE [LRRC45], for which the protein stability index is, setting by setting: (treatment: DMSO) 2.22 ± 0.32; (treatment: MLN4924 1 uM, 8 h) 2.67 ± 0.45.

Turning to ALLGYEMVQVACGASHVLALSTER [NEK8], the protein stability index reads like this: (treatment: DMSO) 2.5 ± 0.88; (treatment: MLN4924 1 uM, 8 h) 2.12 ± 0.44.

Sequence ALLHQAETLQPSVWFGGREHVLMF [TMEM175] had a protein stability index (treatment: DMSO) of 2.28 ± 0.51 and a protein stability index (treatment: MLN4924 1 uM, 8 h) of 1.95 ± 0.5.

As to ALLQAMKDLDGMDADILGLKKSNS [FBF1], the protein stability index was determined as 2.83 ± 0.78 (treatment: DMSO) and 2.82 ± 0.29 (treatment: MLN4924 1 uM, 8 h).

Regarding ALRVLAEQNIIPSATNVTCYYQPA [TENT5C], the protein stability index was 2.31 ± 0.22 (treatment: DMSO) and 2.2 ± 0.089 (treatment: MLN4924 1 uM, 8 h).

Consider ALVAPLLRLENNHCHIEESEHVLK [VPS39], for which the protein stability index reads like this: (treatment: DMSO) 3.26 ± 0.11; (treatment: MLN4924 1 uM, 8 h) 3.32 ± 0.2.

Values taken from the supplement of paper PMC10567573.
